Earlier results in PMC10380471.
Where two headings read alike, the source gives them in different places.

What was measured:
consensus peptide [1] = target: consensus peptide
consensus peptide [2] = target: consensus peptide; remark: listed apart in the source
consensus peptide [3] = target: consensus peptide; remark: listed apart in the source

Chain of Pim-1 (P11309 whole entry): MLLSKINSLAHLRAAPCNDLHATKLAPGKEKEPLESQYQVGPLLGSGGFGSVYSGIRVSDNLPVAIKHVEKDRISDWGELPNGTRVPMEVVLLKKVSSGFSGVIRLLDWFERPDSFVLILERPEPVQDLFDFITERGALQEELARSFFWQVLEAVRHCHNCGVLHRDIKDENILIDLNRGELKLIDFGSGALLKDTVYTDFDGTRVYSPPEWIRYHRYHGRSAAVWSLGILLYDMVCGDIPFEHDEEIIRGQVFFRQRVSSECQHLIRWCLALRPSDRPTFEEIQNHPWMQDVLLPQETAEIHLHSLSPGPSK
Chain of Pim-2 (Q9P1W9 whole entry): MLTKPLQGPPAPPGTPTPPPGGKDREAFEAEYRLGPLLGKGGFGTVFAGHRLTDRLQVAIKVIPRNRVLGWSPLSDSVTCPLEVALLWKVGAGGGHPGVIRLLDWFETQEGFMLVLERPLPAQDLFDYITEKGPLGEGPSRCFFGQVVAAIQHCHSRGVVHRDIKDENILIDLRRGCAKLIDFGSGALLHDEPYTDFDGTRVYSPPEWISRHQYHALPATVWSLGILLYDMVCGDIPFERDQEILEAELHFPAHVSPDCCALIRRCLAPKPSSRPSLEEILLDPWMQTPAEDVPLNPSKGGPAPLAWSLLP

Pim-1 (from UniProt P11309)
Kd (consensus peptide [1]): 0.058 µM

Pim-2 (from UniProt Q9P1W9)
Kd (consensus peptide [2]): 0.64 µM

Pim-3 (from UniProt Q86V86)
Kd (consensus peptide [3]): 0.039 µM
